Results reported in CN111574631A.

Columns and labels:
硫氧还蛋白(Thioredoxin，Trx) [1] = test: indirect ELISA, Trx coated at 3 ug/ml, supernatant of transiently transfected CHO cells diluted 1000-fold, goat anti-mouse-HRP, OD450 (ref 630)
硫氧还蛋白(Thioredoxin，Trx) [2] = test: indirect ELISA, Trx coated at 1 ug/ml, antibody 15.63 ng/ml, goat anti-mouse IgG-HRP, OD450 (ref 630)
硫氧还蛋白(Thioredoxin，Trx) [3] = test: indirect ELISA, Trx coated at 1 ug/ml, antibody 125 ng/ml, goat anti-mouse IgG-HRP, OD450 (ref 630)
硫氧还蛋白(Thioredoxin，Trx) [4] = test: indirect ELISA, Trx coated at 1 ug/ml, antibody 0 ng/ml (blank well), goat anti-mouse IgG-HRP, OD450 (ref 630)
硫氧还蛋白(Thioredoxin，Trx) [5] = test: indirect ELISA, Trx coated at 1 ug/ml, antibody 1000 ng/ml, goat anti-mouse IgG-HRP, OD450 (ref 630)
硫氧还蛋白(Thioredoxin，Trx) [6] = test: indirect ELISA, Trx coated at 1 ug/ml, antibody 1.95 ng/ml, goat anti-mouse IgG-HRP, OD450 (ref 630)

Sequence of 硫氧还蛋白(Thioredoxin，Trx) (P0AA25 2-109): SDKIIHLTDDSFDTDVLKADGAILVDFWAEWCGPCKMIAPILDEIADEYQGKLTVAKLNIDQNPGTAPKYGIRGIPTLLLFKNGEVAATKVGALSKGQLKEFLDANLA

B1: 实施例4的硫氧还蛋白的单克隆抗体(WT) (antibody, mouse IgG1, kappa, V domains shown)
VH: EVQLQQSGPMLVKPGASVTISCKASGFTITDYNLHWVRQSHGKSLEWIGYITSYNGGTGYNQKFKTKATLTVDKSSTTAYMELRSLTSDDSALYYCARNFRNYFEHWGQGTTLTVSS
VL: DIQMTQPTSSLSASLGDRVTISCRASQDLYNSINWYQQKPDGTVKLLIYYTSRIHSGVPSRFSGSGSGTDYSLTISNLEQEDIATYFCQQGNSIPRTFGGGTKLEIKR
OD (硫氧还蛋白(Thioredoxin，Trx) [1]): > 1 OD
OD (硫氧还蛋白(Thioredoxin，Trx) [2]): 1.62 OD
OD (硫氧还蛋白(Thioredoxin，Trx) [3]): 2.14 OD
OD (硫氧还蛋白(Thioredoxin，Trx) [4]): 0.057 OD
OD (硫氧还蛋白(Thioredoxin，Trx) [5]): 2.31 OD
OD (硫氧还蛋白(Thioredoxin，Trx) [6]): 0.488 OD
